Tested on: HIV-1 RF, NIH Cat #2804
Experiment: Infectivity assay by BFUs on MAGI P4/R5 cells with and without lipofectamine (RNA-I-61)
Format: cell-based
Details: naked (unencapsulated), Presence of Lipofectamine
Protocol: A knockdown study (RNA-I-61) of the 8 nanoencapsulated and the corresponding unencapsulated (naked) siRNA preparations along with two controls described in the previous experiments was performed using freshly reconstituted materials with HIV-1 RF, NIH Cat #2804, diluted to contain ˜100 Blue Focus forming Units (BFUs) per dose of inoculum. […] The objective of this experiment was to test a range of concentrations of the inhibitors to determine the ID50 for each preparation based on the siRNA content. Since the nanosomal materials were freshly reconstituted, they were recharacterized.
The reconstituted samples as well as the naked siRNA preparations were tested for virus infection inhibitory activity. The inhibition of infectivity was measured by counting the number of blue foci due to the induced β-galactosidase activity in the host MAGI P4/R5 cells by the infecting HIV. […] The number of BFUs for each treatment at various dilutions were used to calculate the % inhibition from the corresponding dilution for the Negative_siRNA samples. The inhibitor activity was also quantified by measuring the p24 antigen concentration in each of the wells.
Infectivity Assay by BFUs: The percent inhibitions obtained with various Nanosomal_siRNA formulations versus Negative_siRNA formulations in the presence of lipofectamine are listed in Table 12.
50% Inhibitory Dose (ID50) Values: The data from RNA quantification using gel analysis and the infectivity results were used to plot dose response curves and calculate the ID50 (a.k.a. Inhibitory Concentration that results in 50% inhibition, [IC50]) values.

B1: RANTES: CC chemokine, molecular weight 7,900, natural ligand of CCR5; unencapsulated in Table 13 (protein, UniProt P13501 24-91, looked up)
C-C motif chemokine 5: SPYSSDTTPCCFAYIARPLPRAHIKEYFYTSGKCSNPAVVFVTRKNRQVCANPEKKWVREYINSLEMS
For B1, the “Inhibition of BFUs by Naked_siRNA vs Negative_siRNA” value (shortened to “Inhibition … vs Negative_siRNA”) (Treatment Dilution 1) was 0%, the “Inhibition … vs Negative_siRNA” value (Treatment Dilution 5) was 34% and the “Inhibition … vs Negative_siRNA” value (Treatment Dilution 15) was 18%. For the same molecule, the “Inhibition … vs Negative_siRNA” value (Treatment Dilution 45) was 0% and the “Inhibition … vs Negative_siRNA” value (Treatment Dilution 135) was 0%.
